Test results taken from publication PMC6205234.

The sequences below were run against GST-NS1 (Influenza A virus (H3N2)) (UniProt P03495) (assay: fluorescence anisotropy).
GST-NS1 (Influenza A virus (H3N2)), sequence (P03495 whole entry): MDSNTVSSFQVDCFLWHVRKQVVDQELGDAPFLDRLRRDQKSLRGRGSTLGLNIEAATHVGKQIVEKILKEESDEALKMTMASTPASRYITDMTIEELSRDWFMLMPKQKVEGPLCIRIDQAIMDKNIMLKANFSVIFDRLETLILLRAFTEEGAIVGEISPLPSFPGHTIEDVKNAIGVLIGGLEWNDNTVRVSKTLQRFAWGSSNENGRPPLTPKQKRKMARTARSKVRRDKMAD
In the case of “CCAUCCUCUACAGGCG / CGCCUGUAGAGGAUGG [dsRK1]”, the Kd is reported as 0.17 µM. With “GCUAUCCAGAUUCUGAUU / GAAUCAGAAUCUGGAUAGC [dsCR1]” the Kd was 2.4 µM. Sequence GGGGGGGGGGGGGGGGGU [Poly (G)18] has a Kd of 1.2 µM.
